The record followed here is patent US9181296B2, “Stabilized liquid enzyme compositions” (NOVOZYMES A/S, priority 2008, dated 2015).

The test concerns the target T1, Protease (Savinase 16.0 LEX) (Lederbergia lenta, UniProt P29600).
T1 construct: purchased Novozymes Savinase 16.0 LEX
T1 sequence (P29600 1-269): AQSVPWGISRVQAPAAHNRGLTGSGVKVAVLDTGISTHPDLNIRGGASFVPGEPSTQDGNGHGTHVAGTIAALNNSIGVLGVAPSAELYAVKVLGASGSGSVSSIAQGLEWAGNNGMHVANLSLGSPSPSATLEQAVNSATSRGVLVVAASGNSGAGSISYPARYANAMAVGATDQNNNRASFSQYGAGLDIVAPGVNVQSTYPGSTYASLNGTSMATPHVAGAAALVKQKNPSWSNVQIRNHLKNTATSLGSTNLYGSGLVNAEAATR
Kind of test: Storage stability of protease in liquid detergent N with stabilizer (Example 3). In kind it is biochemical. Conditions: 1 week 40° C. The method, then: Peptide aldehydes Z-GAF-H, Z-GAL-H and Z-GAY-H were produced by peptide synthesis, all with a purity >80%. The peptide aldehydes were dissolved in DMSO to a concentration of 10 mg/ml before use.
The following detergent N with enzymes was prepared:
The following detergents with stabilizer according to the invention were prepared and normalized to 100 g of detergent:
The detergents were placed in closed glasses at 40° C. Residual activity of protease was measured (by comparison to a reference stored at −18° C.) after 1 week, using standard enzyme analytical methods (protease measured by hydrolysis of N,N-dimethylcasein at 40° C., pH 8.3).

Z-GAY-H: the “Molar surplus of inhibitor relative to protease needed to reach the same residual activities as the other peptide aldehydes” value (compared with Z-GAL-H and Z-GAF-H in detergent N) is given as “approximately half”. For the same substance, the “Efficiency for stabilizing the protease (in words)” value (detergent N) is “most efficient”.
